Source: the nanobody polyreactivity screen of Harvey et al. (2022)

Experiment: yeast display, Sf9 membrane polyspecificity reagent, FACS + sequencing; frameworks hold sequencing errors
How it was run: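 Nanobodies came from a synthetic yeast display library in Saccharomyces cerevisiae BJ5465, induced with galactose for 36–48 hours and stained for 1 hour at 4 °C with 10% biotinylated, detergent-solubilized Sf9 membrane reagent. Cells were enriched on streptavidin microbeads and then FACS-sorted, with low and high (top ~1%) gates set on anti-HA fluorescence for expression and streptavidin fluorescence for reagent binding. Each polyreactivity label reflects the gate a clone came from. Genes were amplified by colony PCR, sequenced by MiSeq 2 × 250 and filtered by CDR length.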

Q: Which “polyreactivity (PSR sort gate)” value does the source give for “QVQLVESGGGLVQAGGSLRLSCAASGRTFSRYAMGWYRQAPWKERELVAAITSRGGNTYYADSVKGRFTISRDNAKNTVYLQMNSLIPEDTAVYYCNKVVRRGGGKNPDYDYWGQGTQVTVSS” here?
A: high polyreactivity

Q: For “QVQLVESGGGLVQAGGSLRLSCAASGRTFSSNAMGWYRPAPGKEREMVAAITRRSGSTYYADSVKGRFTISRDNAKNTVYLQMNSLKPEDTAVYYCNADIDSYREMDYWGQGTQVTVSS”, which “polyreactivity (PSR sort gate)” value is on record?
A: low polyreactivity

Q: With “QVQLVESGGGLVQAGGSLRLSCAASGRTFSSNTMGWYRQAPGKERELVAAISSTDSTYYADSVKGRFTISRDNAKNTVYLQMNSLKPEDTAVYYCNKVVGFRSYFGGYGYWGQGTQVTVSS” as the sequence, how does the “polyreactivity (PSR sort gate)” value read?
A: high polyreactivity

Q: With “QVQLVESGGGLVQAGGSLRLSCAASGRTFSSYAMGWYRQAPGKERELVAAISSGGSTYYADSVKGRFTISRDNAKNTVYLQMNSLKPEDTAVYYCNRRFYYKIGRGIRYFWGQVTQVTVSS” as the sequence, how does the “polyreactivity (PSR sort gate)” value read?
A: high polyreactivity

Q: Which “polyreactivity (PSR sort gate)” value does the source give for “QVQLVESGGGLVQAGGSLRLSCAASGRTFSSYVMGWYRQAPGKERELVASISRRGGSTYYADSVKGRFTISRDNAKNTVYLQMNSLKPEDTAVYYCNADLRGYGRGTDQYTFDYWGQGTQVTVSS” here?
A: high polyreactivity

Q: For “QVQLVESGGGLVQAGGSLRLSCAASGRTFSTYAMGWYRQAPGKERELVAAITTSGGNTYYADSVKGRFTISRDNAKNTVYLQMNSLKPEDTAVYYCNADYFPTYDYWGQGTQVTVSS”, which “polyreactivity (PSR sort gate)” value is on record?
A: low polyreactivity

Q: With “QVQLVESGGGLVQAGGSLRLSCAASGRTFSVNAMGWYRQAPGKEREFVAAISKSGGSTYYADSVKGRFTISRDNAKNTVYLQMNSLKPEDTAVYYCAADSNSVYPFDYWGQGTQVTVSS” as the sequence, how does the “polyreactivity (PSR sort gate)” value read?
A: high polyreactivity

Q: Which “polyreactivity (PSR sort gate)” value does the source give for “QVQLVESGGGLVQAGGSLRLSCAASGRTFSVNAMGWYRQAPGKERELVATISYRGGSTYYADSVKGRFTISRDNAKNTVYLQMNSLKPEDTAVYYCAAGWRYWGRIYRDYDSWGQGTQVTVSS” here?
A: high polyreactivity

Q: With “QVQLVESGGGLVQAGGSLRLSCAASGRTFSWYAMGWYRQAPGKERELVAAITSDGSPYYADSVKGRFTISRDNAKNTVYLQMNSLKPEDTAVYYCAADTVYRSYYWGQGTQVTVSS” as the sequence, how does the “polyreactivity (PSR sort gate)” value read?
A: low polyreactivity

Q: With “QVQLVESGGGLVQAGGSLRLSCAASGRTFSWYAMGWYRQAPGKERELVAAITSVGSTNYADSVKGRFTISRDNAKNTVYLQMNSLKPEDTAVYYCAATIFVYSYRYYYWGQGTQVTVSS” as the sequence, how does the “polyreactivity (PSR sort gate)” value read?
A: low polyreactivity

Q: With “QVQLVESGGGLVQAGGSLRLSCAASGRTFSYNAMGWYRQAPGKERELVAAISYDGGRTYYADSVKGRFTISRDNAKNTVYLQMNSLKPEDTAVYYCAAYPYRGPHPWTIGDYWGQGTQVTVSS” as the sequence, how does the “polyreactivity (PSR sort gate)” value read?
A: low polyreactivity

Q: With “QVQLVESGGGLVQAGGSLRLSCAASGRTFSYYAMGWYRQAPAKERELVAAIRSTGSTNYADSVKGRFTISRDNAKNTVYLQMNSLKPEDTAVYYCAARKYYQRGYDYWGQGTQVTVSS” as the sequence, how does the “polyreactivity (PSR sort gate)” value read?
A: high polyreactivity

Q: Which “polyreactivity (PSR sort gate)” value does the source give for “QVQLVESGGGLVQAGGSLRLSCAASGRTFSYYAMGWYRQAPGKEREFVAAISSTGTSTYYADSVKGRFTISRDNAKNTFSLQMNRLKPEDTAVYYCNARVATYRLHSKFYYWGQGTQVTVSS” here?
A: high polyreactivity

Q: With “QVQLVESGGGLVQAGGSLRLSCAASGRTFSYYAMGWYRQAPGKERELVAAISRSGVTTHYADSVKGRFTISRDNAKNTVYLQMNSLKTEDTAVYYCNKVYYYVGTLDYWGQGTQVTVSS” as the sequence, how does the “polyreactivity (PSR sort gate)” value read?
A: high polyreactivity

Q: For “QVQLVESGGGLVQAGGSLRLSCAASGRTFSYYAMGWYRQAPGKERELVAAISSGGSTNYADSVKGRFTISRDNAKNTVYLQMNSLKPEDTAVYYCATSSICGSGRVRWVTYYYWGQGTQVTVSS”, which “polyreactivity (PSR sort gate)” value is on record?
A: low polyreactivity

Q: For “QVQLVESGGGLVQAGGSLRLSCAASGRTFSYYAMGWYRQAPGKERELVAAITSGGGRTYYADSVKGRFTISRDNAKNTVYLQMNSLKPEDTAVYYCNKAYVSRYDYWGQGTQVTVSS”, which “polyreactivity (PSR sort gate)” value is on record?
A: high polyreactivity

Q: With “QVQLVESGGGLVQAGGSLRLSCAASGRTFSYYAMGWYRQAPGKERELVAAITSSGGRTTYADSVKGRFTISRDNAKNTVYLQMNSLKPEDTAVYYCAARHTYQGPGTYPMYYWGQGTQVTVSS” as the sequence, how does the “polyreactivity (PSR sort gate)” value read?
A: high polyreactivity

Q: For “QVQLVESGGGLVQAGGSLRLSCAASGRTFSYYAMGWYRQAPGKERELVASINWSGGSTYYADSVKGRFTISRDNAKNTVYLQMNSLKPEDTAVYYCAADSWPFGYYYWGQGTQVTVSS”, which “polyreactivity (PSR sort gate)” value is on record?
A: high polyreactivity

Q: For “QVQLVESGGGLVQAGGSLRLSCAASGRTFSYYSMGWYRQAPGKERELVAAITSGGGRTYYADSVKGRFTISRDNAKNTVYLQMNRLKPEDTAVYYCNALYTLYNGYDYWGQGTQVTVSS”, which “polyreactivity (PSR sort gate)” value is on record?
A: high polyreactivity

Q: With “QVQLVESGGGLVQAGGSLRLSCAASGRTFSYYTMGWYRQAPGKERELVAAITSSGGSTYYADSVKGRFTISRDNAKNTVYLQMNSLKPEDTAVYYCAVLNYWAMDYWGQGTQVTVSS” as the sequence, how does the “polyreactivity (PSR sort gate)” value read?
A: high polyreactivity

Q: For “QVQLVESGGGLVQAGGSLRLSCAASGRTFTAYTMGWYRQAPGKERELVASISSGVTYADSVKGRFTISRDNAKNTVYVQMNSLKPEDTAVYYCAARLWYVQGYVPYVHHRFDYWGQGTQVTVSS”, which “polyreactivity (PSR sort gate)” value is on record?
A: low polyreactivity

Q: Which “polyreactivity (PSR sort gate)” value does the source give for “QVQLVESGGGLVQAGGSLRLSCAASGRTFTAYTMGWYRQAPGKERELVDSISSGVTYADSVKGRFTISRDNAKNTVYLQMNSLKPEDTAVYYCAARLWYVQGYVPYVHHRFDYWGQGTQVTVSS” here?
A: low polyreactivity

Q: With “QVQLVESGGGLVQAGGSLRLSCAASGRTFTDYTMGWSRQAPGKERELVASISSGVTYADSVKGRFTISRDNAKYTVYLQMNSLKPEDTEVYYCAARLWYVQGYVPYVHHRFDYWGQGTQVTVSS” as the sequence, how does the “polyreactivity (PSR sort gate)” value read?
A: low polyreactivity

Q: With “QVQLVESGGGLVQAGGSLRLSCAASGRTFTFNAMGWYRQAPGKERELVARIDWRGITYADSVKGRFTISRDNAKNTVYLQMNSLKPEDTAVYYCAAVWLHIRGFFFQYDYWGQGTQVTVSS” as the sequence, how does the “polyreactivity (PSR sort gate)” value read?
A: low polyreactivity

Q: With “QVQLVESGGGLVQAGGSLRLSCAASGRTFTGSVMGWYRKAPGKERELVAAISWNGGRTYYADSVKGRFTLSRDNAKNTVYLQMYSLKPEDTGVYLCGTYGYNSYDYWGHGTQVTVSS” as the sequence, how does the “polyreactivity (PSR sort gate)” value read?
A: high polyreactivity

Q: With “QVQLVESGGGLVQAGGSLRLSCAASGRTFTGYAMGWYRQAPGKEREFVAAITQRGGSTYYADSVKGRFTISRDNEKNTVYLQMNSLKAEDTAVYYCAARRRYKMDYWGQGTQVTVSS” as the sequence, how does the “polyreactivity (PSR sort gate)” value read?
A: high polyreactivity

Q: With “QVQLVESGGGLVQAGGSLRLSCAASGRTFTINAMGWYRQAPGKERELVAAITSGGSTNYADSVKGRFTISRDNAKNTVYLQMNSLKPEDTAVYYCNAGYYSRRYYFSGRLDYWGQGTQVTVSS” as the sequence, how does the “polyreactivity (PSR sort gate)” value read?
A: low polyreactivity

Q: With “QVQLVESGGGLVQAGGSLRLSCAASGRTFTIYAMGWYRQAPGKEREFVASITGSDGSTYYADSVKGRFTISRDNAKNTVYLQMNSLKPEDTAVYYCAAATSSAYDYWGQGTQVTVSS” as the sequence, how does the “polyreactivity (PSR sort gate)” value read?
A: low polyreactivity

Q: For “QVQLVESGGGLVQAGGSLRLSCAASGRTFTIYAMGWYRQAPGKERELVAAISWSDGSTYYADSVKGRFTISRDNAKNTVYLQMNSLKPEDTAVYSCAREVYGDASAPDMDYWGQGTQVTVSS”, which “polyreactivity (PSR sort gate)” value is on record?
A: low polyreactivity

Q: Which “polyreactivity (PSR sort gate)” value does the source give for “QVQLVESGGGLVQAGGSLRLSCAASGRTFTKYAMGWDRQAPGKERELVAVISVIGGTNYADSVKWRFTISRDNAKNTVYLQMNSLKPEDTAVYYCAAVSREHDYWGQGTQVTVSS” here?
A: high polyreactivity
